# Data as given in patent US20220324964A1 (GENERAL HOSPITAL, published 2022).
# T1: soluble BCMA, labeled (UniProt Q02223 1-54, fluorescent label (not specified))
# T1 construct: Labeled soluble protein used to stain CAR T cells in flow cytometry; also called sBCMA; fluorescent BCMA
# T1 sequence (looked up): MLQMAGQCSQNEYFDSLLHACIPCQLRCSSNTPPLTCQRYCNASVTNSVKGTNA
# T2: soluble TACI protein, fluorescently labeled (UniProt O14836 1-165, limits assumed, fluorescent label (not specified))
# T2 construct: Labeled soluble protein used to stain CAR T cells in flow cytometry; also called sTACI; fluorescent TACI
# T2 sequence (looked up): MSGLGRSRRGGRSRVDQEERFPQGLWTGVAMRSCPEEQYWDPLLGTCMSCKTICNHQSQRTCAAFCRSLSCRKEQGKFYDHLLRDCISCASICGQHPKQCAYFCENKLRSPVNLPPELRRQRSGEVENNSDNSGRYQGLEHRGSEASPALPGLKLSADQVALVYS
# T3: his-tagged recombinant TACI (UniProt O14836 1-165, limits assumed)
# T3 construct: Analyte in the SPR assay; also called TNFRSF13B; not shown: his tag
# T3 sequence (looked up): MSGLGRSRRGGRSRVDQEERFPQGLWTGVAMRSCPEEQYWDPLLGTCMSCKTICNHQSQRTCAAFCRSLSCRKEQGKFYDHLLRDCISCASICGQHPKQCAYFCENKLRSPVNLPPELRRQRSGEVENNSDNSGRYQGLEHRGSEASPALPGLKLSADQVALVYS
# Legend:
# soluble BCMA, labeled = biological target: T1, soluble BCMA, labeled; assay: flow cytometry, labeled soluble BCMA (8 to 1000 ng) on CAR T cells, gated on live CAR T cells
# Protocol: The anti-BCMA, anti-TACI (H/L), and anti-TACI (L/H) CAR T cells were evaluated for their capabilities to bind to soluble TACI (sTACI), soluble BCMA (sBCMA), and soluble APRIL (sAPRIL) was determined. T cells were washed 4 times in PBS 4% BSA, and incubated with labeled protein on ice at 4° C. for 40 min. After incubation, cells were washed twice with FACS buffer and flow cytometry was performed gating on live, CAR T cells to calculate protein binding. As evident in FIG. 12A, anti-TACI (L/H) CAR T cells have higher binding efficiency to soluble TACI than anti-TACI (H/L) CAR T cells.
# [1] = biological target: T2, soluble TACI protein, fluorescently …; assay: flow cytometry, fluorescent soluble TACI titrated 0.01 to 1000 nM on CAR T cells, percentage TACI+, N=3
# Protocol: (§1) FIGS. 25A-25B show measurements of binding of soluble TACI protein to untransduced T cells, and to T cells expressing anti-TACI H-L, anti-TACI L-H, or anti-BCMA. Cells were incubated with fluorescent soluble TACI protein at various concentrations, after which fluorescence of the cells was measured using flow cytometry, represented as percentage of cells positive for TACI (FIG. 25A) or as median fluorescence intensity (MFI) relative to signal measured in untransduced cells (FIG. 25B).
# (§2) To evaluate the expression, binding efficacy, and binding specificity of anti-TACI CARs, normal donor T cells were transduced with anti-TACI H-L, anti-TACI L-H, or anti-BCMA and transduction efficiency was evaluated by measuring the percentage of each T cell population positive for mCherry expression by flow cytometry. […] To compare binding efficiency and specificity of different CARs, T cells expressing each CAR construct were incubated with fluorescently-labeled soluble TACI and analyzed by flow cytometry.
# [2] = biological target: T2, soluble TACI protein, fluorescently …; assay: flow cytometry, fluorescent soluble TACI titrated 0.01 to 1000 nM on CAR T cells, percentage TACI+ (panel Soluble binding of TACI), N=3
# Text: (§3) The top two plots show binding of fluorescent BCMA and the bottom two plots show binding of fluorescent TACI to anti-TACI H-L CAR, anti-TACI L-H CAR, anti-BCMA, anti-TACI/anti-BCMA bispecific CAR, anti-BCMA/anti-TACI bispecific CAR, or untransduced T cells. The two left plots show the percentage of cells positive for BCMA or TACI. The two right plots show median fluorescence intensity for each cell population relative to untransduced cells.
# (§4) To test the efficacy of bispecific CAR T cells to bind their respective antigens, T cells were either left untransduced, or transduced with anti-TACI H-L CAR, anti-TACI L-H CAR, anti-BCMA CAR, anti-TACI/anti-BCMA bispecific CAR, or anti-BCMA/anti-TACI bispecific CAR, and were tested for their binding of soluble antigens.
# [3] = biological target: T2, soluble TACI protein, fluorescently …; assay: flow cytometry, fluorescent soluble TACI titrated 0.01 to 1000 nM on CAR T cells, MFI relative to untransduced cells (panel Amount of soluble TACI binding), N=3
# Text: as §3, §4
# [4] = biological target: T2, soluble TACI protein, fluorescently …; assay: flow cytometry, fluorescent soluble TACI titrated 0.01 to 1000 nM on CAR T cells, MFI relative to untransduced cells, N=3
# Protocol: as §1, §2
# [5] = biological target: T3, his-tagged recombinant TACI; assay: SPR; antibody captured on anti-mouse IgG chip, his-tagged recombinant TACI as analyte
# Protocol: The antibodies were analyzed by surface plasmon resonance according to the following procedure (FIG. 2). The binding of his-tagged recombinant TACI to anti-TACI antibody was captured to 120 RU (for TACI) on anti-mouse IgG.
Binder,"binding result (soluble BCMA, labeled)",EC50 (read off the curve) [1] [nM],EC50 (read off the curve) [2] [nM],EC50 (read off the curve) [3] [nM],EC50 (read off the curve) [4] [nM],Kd [5] [nM],koff [5] [s⁻¹],kon [5] [M⁻¹ s⁻¹]
"Anti-TACI (H/L) CAR expressed on T cells (other, Chimeric antigen receptor: anti-TACI scFv VH-(G4S)4-VL, CD8 hinge/TM, 4-1BB, CD3zeta; The vector also expresses mCherry; also called Anti-TACI CAR (H-L)) EVQLQQSGPELVKPGASVKISCKTSGYTFTESTIHWVKQSHGKSLEWIGGISPNNGGSPFNQKFKGKATLTVDKSSSTVYMELRSLSSEDSAVYYCAKWVRGAMDFWGQGTSVTVSSGGGGSGGGGSGGGGSGGGGSDIVLTQSPASLAVSLGQRATISCRASESVDYYGMSLMNWFQQKPGQPPKLVIYAASNQGSGVPARFSGSGSGTDFRLNIHPLEEDDTGMYFCQQSKEAPPTFGGGTKLEIKTTTPAPRPPTPAPTIASQPLSLRPEACRPAAGGAVHTRGLDFACDIYIWAPLAGTCGVLLLSLVITLYCKRGRKKLLYIFKQPFMRPVQTTQEEDGCSCRFPEEEEGGCELRVKFSRSADAPAYQQGQNQLYNELNLGRREEYDVLDKRRGRDPEMGGKPRRKNPQEGLYNELQKDKMAEAYSEIGMKGERRRGKGHDGLYQGLSTATKDTYDALHMQALPPR",no binding (tested: 1000 ng),~2,~2,~8,~8,,,
"anti-TACI antibody (monoclonal antibody from hybridoma, Example 1) (antibody, V domains shown, also called anti-TACI mAb) VH: EVQLQQSGPELVKPGASVKISCKTSGYTFTESTIHWVKQSHGKSLEWIGGISPNNGGSPFNQKFKGKATLTVDKSSSTVYMELRSLSSEDSAVYYCAKWVRGAMDFWGQGTSVTVSS VL: not shown",,,,,,0.861,0.00121,1.41e+06
